The text below walks through data of patent publication US20230048360A1.

Assay [1] deals with cell surface-bound human GPC3 on GPC3+ HepG2 cells (human) (UniProt P51654). The experiment in a line: FACS, control (helper) phage on GPC3+ HepG2 cells, anti-M13 then PE anti-mouse IgG; same sample in FIGS. 3A-3D.
The target is the same in assay [2]. As to the kind of experiment: FACS, helper phage on GPC3+ HepG2 cells, mouse anti-M13 then PE anti-mouse IgG; same sample shown in all panels of FIGS. 1A-1G.
Assay [3] has the same target. The experiment in a line: FACS, control (helper) phage on GPC3+ HepG2 cells, anti-M13 then PE anti-mouse IgG; same sample in FIGS. 2A-2E.
Assay [4] has the same target. The experiment in a line: FACS, control mIgG1 on GPC3-positive HepG2 cells, PE anti-mouse IgG (H and L).

Take Negative control (helper phage): the Median : PE-A in assay [1] is 106; in assay [2], 99.4; in assay [3] it was 556.
With control mIgG1 (antibody), the Median : PE-A in assay [4] was determined as 93.8.
